T1: ALK4 (activin type I receptor) (UniProt P36896 24-505, limits assumed)
T1 sequence (looked up): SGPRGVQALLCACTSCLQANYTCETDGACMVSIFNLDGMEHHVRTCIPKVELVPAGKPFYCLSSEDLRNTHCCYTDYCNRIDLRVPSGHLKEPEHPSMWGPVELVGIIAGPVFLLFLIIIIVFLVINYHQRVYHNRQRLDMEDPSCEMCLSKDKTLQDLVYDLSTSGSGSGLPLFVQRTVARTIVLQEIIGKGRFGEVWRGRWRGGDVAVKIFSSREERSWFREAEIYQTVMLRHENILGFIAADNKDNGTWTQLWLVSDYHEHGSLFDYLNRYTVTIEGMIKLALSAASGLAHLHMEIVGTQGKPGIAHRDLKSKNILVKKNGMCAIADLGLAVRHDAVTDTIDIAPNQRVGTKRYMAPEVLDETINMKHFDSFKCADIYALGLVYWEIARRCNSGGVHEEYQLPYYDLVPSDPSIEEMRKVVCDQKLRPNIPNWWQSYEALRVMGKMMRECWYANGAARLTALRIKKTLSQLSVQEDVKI


Columns and labels:
[1] = target: ActRII (type II activin receptor) transfected into 293T cells (UniProt P27038); assay: cell-based or functional assay
[2] = target: T1, ALK4 (activin type I receptor); assay: cell-based or functional assay
[3] = target: T1, ALK4 (activin type I receptor); assay: cell-based or functional assay; remark: listed apart in the source
[4] = target: T2, mouse ActRII transfected into 293T cells (mouse, UniProt P27038 20-513); assay: ActRII binding, 293T cells transfected with mouse ActRII
T2 construct: whole, on cells
Experimental: After the incubation cells were washed three times with HDB buffer and lysed with 1% SDS solution. Radioactivity in the lysate was determined using a gamma counter.
Therefore, the inventors contemplate engineering a series of activin-A chimeras, such as activin-A/C chimeras, preferably having a peptide tag such a FLAG tag, in each of […] in the wrist loop and helix (such as A/C 46-53, 54-63, 64-69, 70-78) are replaced. Additionally, a chimera was generated in which the entire wrist region (A/C 46-78) was changed from activin-A to activin-C or some other analogous TGF-β member. In one example, the chimeras were assessed for ActRII binding, activin bioactivity as well as antagonistic properties. […] Maximum activity of A/C 64-69 and 70-78, however, was reduced down to about 20-50% and 60-90%, respectively, when compared to wt activin. […] Additionally, A/C 46-78 decreased the basal and activin induced FSH release from cultured rat anterior pituitary cells in a concentration dependent manner. […] The activin antagonist A/C 46-78 may be useful for the study and modulation of activin dependent processes.

[5] = target: activin receptors of non-transfected 293T cells; assay: competition binding, 125I-activin on non-transfected 293T cells
[6] = target: T3, ActRII and ALK4 co-transfected into 293T cells (UniProt P27038 20-513; P36896 24-505); assay: competition binding, 125I-activin on 293T cells transfected with ActRII and ALK4
T3 construct: whole, on cells; Both receptors on the same cells; also called cells transfected with ActRII and ALK4; receptor complex

[7] = target: T1, ALK4 (activin type I receptor); assay: DSS crosslinking of 125I-M108A to 293T cells transfected with ActRII-myc and ALK4, immunoprecipitation, SDS-PAGE, autoradiography
Experimental: Cells were incubated with labeled activin or labeled M108A as indicated, subjected to covalent crosslinking with dissucinylsuberate (DSS), solubilized in lysis buffer, immunoprecipitated using an antibody against myc or ALK4 and then immunoprecipitated proteins were resolved by SDS-PAGE and visualized by autoradiography.
Approximately 24 h later, cells were transfected with 2 μg DNA per well with the indicated constructs (the ratio of ActRII:ALK4 was 2:1 and total DNA was kept constant using pcDNA3.0). […] Cells were washed in HDB, resuspended at 0.5 mM disuccinylsuberate (DSS) in HDB and incubated 30 min on ice. Crosslinking reactions were quenched with TBS (50 mM Tris-HCl pH 7.5, 150 mM NaCl) and cells were solubilized in lysis buffer (TBS containing 1% NP-40, 0.5% deoxycholate and 2 mM EDTA) and subjected to immunopreciptation using anti-myc or anti-ALK4 antibodies as indicated. Immune complexes were analyzed by SDS-PAGE and autoradiography.

T3 sequence (P27038 20-513, one chain of several): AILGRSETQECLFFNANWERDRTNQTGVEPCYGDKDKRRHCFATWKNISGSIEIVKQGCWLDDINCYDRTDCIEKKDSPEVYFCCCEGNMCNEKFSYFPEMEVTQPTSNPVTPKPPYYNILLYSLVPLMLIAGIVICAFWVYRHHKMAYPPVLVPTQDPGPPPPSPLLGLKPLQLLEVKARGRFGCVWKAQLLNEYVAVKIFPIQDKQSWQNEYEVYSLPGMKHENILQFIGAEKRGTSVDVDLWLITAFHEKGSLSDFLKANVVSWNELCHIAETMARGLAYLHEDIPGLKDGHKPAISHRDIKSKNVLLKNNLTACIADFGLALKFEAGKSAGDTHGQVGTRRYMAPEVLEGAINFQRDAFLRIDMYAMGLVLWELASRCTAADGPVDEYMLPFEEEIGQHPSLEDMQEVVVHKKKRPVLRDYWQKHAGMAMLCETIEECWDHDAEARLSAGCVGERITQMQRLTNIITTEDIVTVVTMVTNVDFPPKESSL
T2 sequence (P27038 20-513): as the sequence (P27038 20-513, one chain of several) above
Chain of ActRII (type II activin receptor) transfected into 293T cells (P27038 20-513): as the sequence (P27038 20-513, one chain of several) above

% Activin Activity (A3-luciferase assay in 293T cells) (% of wild type activin-A) [1]	EC50 of activity in the A3 Lux reporter assay in 293T cells [2] [nM]	% Activin Activity (A3-luciferase assay in 293T cells) [3]	EC50 [4] [nM]	apparent affinity [5] [pM]	fold higher affinity than in cells transfected with ActRII alone [5] [fold]	fold higher affinity than in cells transfected with ActRII alone [6] [fold]	affinity [5] [pM]	binding result [7]	Binder
18	–	–	–	–	–	–	–	–	activin-A K102E (ligand, human, UniProt P08476 311-426, looked up) GLECDGKVNICCKKQFFVSFKDIGWNDWIIAPSGYHANYCEGECPSHIAGTSGSSLSFHSTVINHYRMRGHSPFANLKSCCVPTKLRPMSMLYYDDGQNIIEKDIQNMIVEECGCS
–	0.2	100 % of wild type activin-A	0.15	60 to 80	2	2	–	–	wild type activin-A (ligand, human, UniProt P08476 311-426, looked up, mature; As tracer it was radioiodinated by the chloramine T method; also called WT activin-A; wt activin-A) GLECDGKVNICCKKQFFVSFKDIGWNDWIIAPSGYHANYCEGECPSHIAGTSGSSLSFHSTVINHYRMRGHSPFANLKSCCVPTKLRPMSMLYYDDGQNIIKKDIQNMIVEECGCS
–	–	8 % of wild type activin-A	–	–	–	–	370	no binding	activin-A (M108A) (ligand, human, UniProt P08476 311-426, looked up, mature; Radioiodinated by the chloramine T method for the crosslinking study; also called M108A activin-A; M108A mutant) GLECDGKVNICCKKQFFVSFKDIGWNDWIIAPSGYHANYCEGECPSHIAGTSGSSLSFHSTVINHYRMRGHSPFANLKSCCVPTKLRPMSMLYYDDGQNIIKKDIQNAIVEECGCS
